Test results from patent publication US7872117.

Target: murine c-Met polypeptide (Met receptor as expressed on DA3 mouse mammary adenocarcinoma cells) (mouse) (UniProt P16056)
Experiment: cell-based or functional assay

## Hepatocyte growth factor/scatter factor (HGF/SF) (ligand)
  in vitro invasion through Matrigel (invading cells per filter, DA3 cells, HGF/SF 100 ng/ml) (cells per filter): 80
